Holding throughout (type): cell-based
The target of one test is T1, pSmad3 (Mus musculus, UniProt Q8BUN5).
T1 construct: endogenous in cells; host or cells: AKR-2B cells
Put plainly: Nuclear import of pSmad3 (nuclear fractions Western, immunofluorescence) in AKR-2B cells. Particulars: 90 minutes transduction, TGFβ 5 ng/mL 1 hour. Here is the method:
FIGS. 1A-C. SH3 domain of sorting nexin 9 (SNX9) specifically binds pSmad3 and prevents nuclear import. (A) Cartoon depicting domains in full length (FL) SNX9 and constructs used for GST pull down assays. Lysates from AKR-2B cells untreated (−) or stimulated (+) for 45 minutes with 5 ng/mL TGFβ were incubated with GST beads or the indicated fusion polypeptides immobilized on GST beads. Bound polypeptides were eluted and assessed by Western analysis for pSmad3 or pSmad2. Cell lysate reflects signal obtained from 10 μg total protein. (B) AKR-2B cells were transduced for 90 minutes with the indicated concentrations of the TAT-SNX9(SH3) fusion polypeptides. […] Quantitation of nuclear pSmads was performed with Image J software and represents the mean+/−sd of two experiments (Right). […] Quantitation of nuclear Smad3 from 30 cells in each of two experiments (Right).
(§1) FIGS. 3A-E. Inhibition of Smad3 signaling by a defined region of the SH3 domain in SNX9. […] (B) Nuclear fractions were prepared and assessed as in FIG. 1B following transduction with the indicated TAT-SNX9(SH3) fusion polypeptide (Left). Quantitation (mean+/−sd) of nuclear pSmad2 or pSmad3 from 2 experiments (Right). (C) Immunofluorescence of nuclear Smad3 was determined as in FIG. 1C from 30 cells in each of two experiments in the absence (−) or presence (+) of 5 ng/mL TGFβ and the indicated TAT-SNX9(SH3) fusion polypeptide (1.5 μM). […]

The subject of test [1] is Smad3 targets (PAI-1, CTGF, Smad7). Put plainly: RT-PCR/qPCR/Western of Smad3 responsive genes in AKR-2B cells. Conditions: 5 ng/mL TGFβ, 24 hours. The protocol:
(§2) FIGS. 2A-C. TAT-SH3 inhibits Smad3-dependent responses. (A) AKR-2B cells were transiently transfected with a Smad3 (3TP), Smad2 (ARE), or Smad1/5/8 (BRE) reporter construct, and luciferase activity determined following 12 hours incubation in the absence (−) or presence (+) of the indicated ligand (5 ng/mL TGFβ; 10 ng/mL BMP4) or TAT-SNX9(SH3) fusion polypeptide (1.5 μM). Data represent the mean+/−SEM of three experiments. (B) RT-PCR analysis of Smad3 (PAI-1 and CTGF) and Smad2 (MMP2) responsive gene following 24 hour treatment of AKR-2B cells with the indicated concentration of TAT-SNX9(SH3) fusion polypeptide or 5 ng/mL TGFβ. Loading was verified by GAPDH expression. (C) Soft agar colony formation was performed following seven days growth in the presence (+) or absence (−) of TGFβ (10 ng/mL) or the indicated TAT-SNX9(SH3) fusion polypeptide (1.5 μM). […]
as §1

In another test the test system is AKR-2B cells. Put plainly: Soft agar colony formation (anchorage-independent growth, AIG). Conditions: 1.5 μM polypeptide, TGFβ 10 ng/mL, seven days. Here is the method: as §2, §1
For another test, the target named is T2, pSmad2 (Mus musculus, UniProt Q62432).
T2 construct: nuclear fractions were isolated, and Western blotted for pSmad2, pSmad3, or histone deacetylase 1 (HDAC); endogenous in cells; host or cells: AKR-2B cells
T2 sequence (Q62432 whole entry): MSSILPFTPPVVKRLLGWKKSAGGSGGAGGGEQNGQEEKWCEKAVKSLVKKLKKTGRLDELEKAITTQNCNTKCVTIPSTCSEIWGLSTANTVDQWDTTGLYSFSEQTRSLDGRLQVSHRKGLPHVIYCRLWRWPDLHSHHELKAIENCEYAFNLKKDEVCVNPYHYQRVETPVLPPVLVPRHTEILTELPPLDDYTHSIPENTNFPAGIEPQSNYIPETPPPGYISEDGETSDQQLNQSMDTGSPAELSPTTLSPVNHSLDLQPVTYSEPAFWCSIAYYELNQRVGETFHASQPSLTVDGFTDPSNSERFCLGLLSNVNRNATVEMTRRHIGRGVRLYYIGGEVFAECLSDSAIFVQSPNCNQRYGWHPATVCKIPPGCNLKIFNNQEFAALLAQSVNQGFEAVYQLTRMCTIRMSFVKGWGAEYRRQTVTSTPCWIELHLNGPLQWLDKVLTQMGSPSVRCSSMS
The experiment in a line: Nuclear import of pSmad2 (nuclear fractions Western) in AKR-2B cells. Conditions: 90 minutes transduction, TGFβ 5 ng/mL 1 hour. The protocol:
FIGS. 1A-C. SH3 domain of sorting nexin 9 (SNX9) specifically binds pSmad3 and prevents nuclear import. (A) Cartoon depicting domains in full length (FL) SNX9 and constructs used for GST pull down assays. Lysates from AKR-2B cells untreated (−) or stimulated (+) for 45 minutes with 5 ng/mL TGFβ were incubated with GST beads or the indicated fusion polypeptides immobilized on GST beads. Bound polypeptides were eluted and assessed by Western analysis for pSmad3 or pSmad2. Cell lysate reflects signal obtained from 10 μg total protein. (B) AKR-2B cells were transduced for 90 minutes with the indicated concentrations of the TAT-SNX9(SH3) fusion polypeptides. Following washing and 1 hour TGFβ (5 ng/mL) treatment, nuclear fractions were isolated, and Western blotted for pSmad2, pSmad3, or histone deacetylase 1 (HDAC) (Left). Quantitation of nuclear pSmads was performed with Image J software and represents the mean+/−sd of two experiments (Right). (C) AKR-2B cells were transduced as in (B) with TAT-SH3 or TAT-LC (1.8 μM) and treated+/−TGFβ (5 ng/mL) for 1 hour. Immunofluorescence for Smad3 or the HA-tagged TAT-SNX9(SH3) fusion polypeptide was performed, and nuclei were stained with DAPI (Left panels). Quantitation of nuclear Smad3 from 30 cells in each of two experiments (Right).
AKR-2B cells were grown in DMEM supplemented with 10% fetal bovine serum (FBS). […]

The subject of a further test is Smad3 (3TP) reporter. Put plainly: Smad3 (3TP) luciferase reporter assay in AKR-2B cells. Conditions: 1.5 μM polypeptide, 5 ng/mL TGFβ, 12 hours. The protocol:
(§3) FIGS. 2A-C. TAT-SH3 inhibits Smad3-dependent responses. (A) AKR-2B cells were transiently transfected with a Smad3 (3TP), Smad2 (ARE), or Smad1/5/8 (BRE) reporter construct, and luciferase activity determined following 12 hours incubation in the absence (−) or presence (+) of the indicated ligand (5 ng/mL TGFβ; 10 ng/mL BMP4) or TAT-SNX9(SH3) fusion polypeptide (1.5 μM). Data represent the mean+/−SEM of three experiments. (B) RT-PCR analysis of Smad3 (PAI-1 and CTGF) and Smad2 (MMP2) responsive gene following 24 hour treatment of AKR-2B cells with the indicated concentration of TAT-SNX9(SH3) fusion polypeptide or 5 ng/mL TGFβ. Loading was verified by GAPDH expression. (C) Soft agar colony formation was performed following seven days growth in the presence (+) or absence (−) of TGFβ (10 ng/mL) or the indicated TAT-SNX9(SH3) fusion polypeptide (1.5 μM). Data reflects the mean+/−sd of triplicate wells from three experiments.
(§4) For luciferase assays, 2×10^5 cells were plated in six well plates containing 10% FBS/DMEM. […] Cells were harvested in 200 μL of reporter lysis buffer (Promega, Madison, Wis.), and luciferase activity was determined in a Berthold Lumat 9507 luminometer after normalization for transfection efficiency with β-galactosidase.

The test system of another test is Smad2 (ARE) reporter. Put plainly: Smad2 (ARE) luciferase reporter assay in AKR-2B cells. Particulars: 1.5 μM polypeptide, 5 ng/mL TGFβ, 12 hours. The protocol: as §3, §4
A general note: A reporter such as luciferase makes a cellular process visible.

In a further test the test system is Smad1/5/8 (BRE) reporter. The experiment in a line: Smad1/5/8 BMP (BRE) luciferase reporter assay in AKR-2B cells. Conditions: 1.5 μM polypeptide, 10 ng/mL BMP4, 12 hours. The protocol:
as §3
FIGS. 4A-E. A point mutant of TAT-SH3-2 abolishes the inhibitory action on Smad3 responses. […] (E) AKR-2B cells were transiently transfected with a BMP (BRE), EGF (SRE), or PDGF (MMP-1) reporter construct and luciferase activity determined following 12 hour incubation in the absence (−) or presence (+) of the indicated ligand (10 ng/mL BMP4, EGF, or PDGF), inhibitor (10 μM Dorsomophin; 3 μM Lapatinib; 2 μM CP868) or TAT-SNX9(SH3) fusion polypeptide (1.5 μM). […]

In test [2] the test system is Smad2 targets (MMP2, Goosecoid, Furin, MixL). The experiment in a line: RT-PCR/qPCR of Smad2 responsive genes in AKR-2B cells. Conditions: 5 ng/mL TGFβ, 24 hours. Here is the method:
as §2, §1
(In general: In qPCR the cycle at which signal appears reflects the starting amount.)

T1 sequence (Q8BUN5 whole entry): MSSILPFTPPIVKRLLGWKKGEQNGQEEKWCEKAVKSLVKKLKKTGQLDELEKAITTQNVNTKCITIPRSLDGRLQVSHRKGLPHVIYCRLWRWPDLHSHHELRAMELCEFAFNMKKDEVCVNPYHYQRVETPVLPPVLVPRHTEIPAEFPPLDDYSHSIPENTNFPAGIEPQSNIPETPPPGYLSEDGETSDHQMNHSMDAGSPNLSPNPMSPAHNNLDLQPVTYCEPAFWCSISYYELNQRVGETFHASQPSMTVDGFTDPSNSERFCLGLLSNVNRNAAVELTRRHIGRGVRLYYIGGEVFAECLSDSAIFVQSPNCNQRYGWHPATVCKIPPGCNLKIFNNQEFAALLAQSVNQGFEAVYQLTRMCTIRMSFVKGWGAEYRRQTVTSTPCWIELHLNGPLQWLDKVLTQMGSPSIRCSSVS

B1: TAT-LC: SNX9 LC (low complexity) domain fused to cell penetrating TAT polypeptide; negative control (protein)
chain: DGKDQFSCGNSVADQAFLDSLSASTAQASSSAASNNHQVGSGNDPWSAWSASKSGNWESSEGWGAQPEGAGAQRNTNTPNNWDTAFGHPQAYQGPATGDDDDWDEDWDGPKSSSYFKDSESADAGGAQRGNSRASSSSMKI
modifications: left off: a dimerising Fc or GST
Consider B1, for which the “nuclear import of pSmad3” value with pSmad3 is “ineffective in modulating nuclear translocation”. Further, the “TGFβ induction of Smad3 targets / Smad3-dependent transcriptional responses” value in test [1] is given as “inert”. Further, the “TGFβ-stimulated anchorage-independent growth in soft agar (AIG)” value with AKR-2B cells is listed as “inert”.

B2: TAT-SH3: TAT-SNX9(SH3) fusion polypeptide containing the full length SH3 domain (amino acids 1 to 62) (protein)
chain: MATKARVMYDFAAEPGNNELTVNEGEIITITNPDVGGGWLEGRNIKGERGLVPTDYVEILPS
modifications: left off: small tags and cut ends
In the case of B2, the “nuclear import of pSmad3” value in the test with pSmad3 was “inhibited nuclear import of pSmad3 in a dose-dependent manner”. For the same molecule, the “nuclear import of pSmad2” value with pSmad2 is “no effect”. Besides, in the test with Smad3 (3TP) reporter, the “Smad3-dependent luciferase activity inhibited” value is recorded as “about 70%”. Also, the “Smad2 signaling (luciferase)” value in the test with Smad2 (ARE) reporter was “no discernible effect”. In addition, the “Smad1/5/8 (i.e., BMP) signaling (luciferase)” value in the test with Smad1/5/8 (BRE) reporter is “no discernible effect”. Moreover, in test [1], the “TGFβ induction of Smad3 targets / Smad3-dependent transcriptional responses” value is on record as “inhibited”. The “induction of Smad2 targets” value in test [2] is on record as “unaffected”. For the same molecule, the “TGFβ-stimulated anchorage-independent growth in soft agar (AIG)” value in the test with AKR-2B cells is on record as “inhibited”.

For the origin of these results see US10144929B2, “Polypeptide inhibitors of Smad3 polypeptide activities” (Mayo Foundation for Medical Education and Research, priority 2016, dated 2018).
